The nature of this data set: yeast display, Sf9 membrane polyspecificity reagent, FACS + sequencing; frameworks hold sequencing errors. In outline: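 Synthetic nanobody libraries on Saccharomyces cerevisiae BJ5465 were galactose-induced for 36–48 hours, stained 1 hour at 4 °C with 10% biotinylated, detergent-solubilized Sf9 membrane reagent and enriched on streptavidin microbeads. FACS then separated cells into low and high (top ~1%) gates by anti-HA (expression) and streptavidin (reagent binding) fluorescence. Genes were colony-PCR amplified, MiSeq 2 × 250 sequenced and CDR-length filtered. A clone's polyreactivity label is that of its gate of origin.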
Take “QVQIVESGGGLVQAGGSLRLSCDASGSIFGRNAMGWYRQAPGKERELVAAITRTGGRTYYPDSVKGRITISRDNAKNTVYLQMNSLKPEDTEVKYCARYGGYWSLKYDYWGQGTQVTVSS”: the “polyreactivity (PSR sort gate)” value is reported as “high polyreactivity”. As for “QVQIVESGGGLVQAGGSLRLSCPASGSTFTRYPMGWYSQAPGKERELVAAISYSGSSTYYADSVKGRFTISRDNAKNTVYLEMICLIPEDTAVYYCAAGKQAPAVNYGYYYWGQCTQVTVSS”, the entry is “low polyreactivity”; as for “QVQIVESGGGLVQAGGSLRLSFAASGRIFYNYALGWYRQAPGKERELVAAISGSGGSTYYADSVKGRFTISRDNAKNTVYLQMNSLKPEVTAVYYCSTSGPQYYSRNFDYWGQGTQVTVSS”, “low polyreactivity”; as for “QVQIVESGGGLVQAGGSLSLSCAASGRTFAGNAMGWYRQAPGKEMELVASISSSGGRTYYADSVKGRFTISRDNAKNTVYLQMISLKPEDTAVYYCAARGGYVSTWTRFSKYNYWGQGTQVTVSS”, “high polyreactivity”.

Turning to “QVQIVESGGGLVQAGGSLSLSCAASGSILDQYAMGWYRQAPGKERELVAAITAIGDSTYYADSLKGRFTISRDNAKYTVYLQMYSLKPEVTAVYYCAGTYVGSDGGDYWGQGTQVTVAS”, the “polyreactivity (PSR sort gate)” value is “low polyreactivity”.

In the case of “QVQIVESGGGLVQAGGSLSLSCADYGSTFYHNVMGWYRQAPGKERELVASIDTGDSTNYADSVKGRFTISRDNAKNTVYLQMNSLKPEYTAVYYCNADSYPALNKRGYDYWGQGTQVTVSS”, the “polyreactivity (PSR sort gate)” value is recorded as “low polyreactivity”.

As to “QVQIVESGGGLVQAGGTLRLSCAPSGRTFAPNTMGWYRHAPGKEREFVARINSRGGSTYADSVKGRFTISRDNAKNTVYLQMNSLKPEDTAVYYCARKPYRGVYRYDYWGQGTQVTVSS”, the “polyreactivity (PSR sort gate)” value is “high polyreactivity”. “QVQIVESGGGLVQAGVSLRLSCAASGSTFETNTMGWYRKAPGKERELVAAITTGGRTYYADSLKGRFSISRDNAKNNVYLQMNSLKPEDTAVYYCAVAYWNRQSLFRMYYWGQGTQVTVSS”: the “polyreactivity (PSR sort gate)” value is “high polyreactivity”. As to “QVQIVESGGGLVQAGVSLRLSCAPSGSTFHLNAMGWYRQAPGKERELVAAISRGGSTYYADSVKGRFTISRDNAKNTVYLQMNRLKPEDTAVYYCNAVWSNFRLGYDYWGQGTQVNVSS”, the “polyreactivity (PSR sort gate)” value was “high polyreactivity”. “QVQIVESGGGLVQARGSLLLSSAASGFTSNYYALGWYRHAPGKESELVAAITTGGSTHYADSVKGRFTFSRDNAQNTVYLQLNSLKQVDSAVYYCAAGTNRQQQRYFHNGGYYQYNYWGQGTQVTVSS”: the “polyreactivity (PSR sort gate)” value is listed as “low polyreactivity”. The same measure for “QVQIVESGGGVVQAGGSLRLICAASGSTFNPYAMGSYRQAPGKERELVAAIRGRSGRTYYADSVKGRFTISRDNAKNTVYLQMTSLIPEDTAVYYCAARFSEYRTHPSEVYYWGQGTQVTVSS”: “high polyreactivity”. As for “QVQIVESGGRIVQAGGSIRLSCAASGSTFLFYAMGRSRQAPGKERQLVAAISYSGGSTFYADSVKGRFTISRDNAKNTVYLQMNSLKPEDTAVYYCAAESYSYGFTHEYWGQGTQETVSS”, the entry is “high polyreactivity”; as for “QVQIVESGRGLVQAGGSLRLSCAASGRIFYNDLMGWYRQAPGKERELVASISTGGTTYYSDSVKGRFTISRDNAKNTVYLQMNSLKPEDTAVYYCNAGLFYAPPFYTMDYWGQGTQVTVSS”, “low polyreactivity”; as for “QVQIVESVGGLLQAGGSLRLSCAASGRIFQGYAMGWYRQAPGKERELVASISSCGRTYYADSVKGRFTISRDNAKNTVYLQFNSLTPEDTAVYYCAKRPQFFWSNPYDYWGLGTQVTVSS”, “high polyreactivity”. As for “QVQIVETGGGLVQAGGSLGLSCAASGSNFGGNTMPCYRQAPGIERALVAAISRSGGSTYYADSVKGRFTISRDIAQNSVYVQMNSLKPEDTAVYYCNRKQAGQAQGYDYWGLGTQVTVSS”, the entry is “high polyreactivity”; as for “QVQIVVSGGGLVQAGGRRRLSCAASGRFFWVYAMGWYRQAPGKERELVAAISRSGGITSYADSVKGRYTISRDNANYTVYLQMNSLKPEDTAVYCCAARSYFDGFYYWGQGAQVTVSS”, “high polyreactivity”; as for “QVQLAESGGGLVQAGGSLRLSCAASGRIFSGYAMGWSRQAPGKERELVAAITSVGSTNYADSVKGRFTISRDNAKNTVYLQMNSLKPEDTAVYYCAAKFVRPYRMYYWGQGTQVTVSS”, “high polyreactivity”. Regarding “QVQLAESGGGLVQAGGSLRLSCAASGRTFNLYAMGWYRQAPGKERELVASISSGGSTYYADSVKGRFTISRDNAKNTVYLQMNSLIPEDTAVYYCAARLAYGPRPMPSYEYYYWGQGTQVTVSS”, the “polyreactivity (PSR sort gate)” value is on record as “low polyreactivity”.

As for “QVQLAESGGGLVQAGGSLRLSCAASGSIFRLNAMGWYRQAPGKERELVAAINSGTNTYYADSVKGRFTISRDNAKNTVYLQMNSLKPEDTAVYYCAADWNDWHYDYWGQGTQVTVSS”, the “polyreactivity (PSR sort gate)” value was “low polyreactivity”.

For the sequence “QVQLAESGGGLVQAGGSLRLSCAASGSIFRLNAMGWYRQAPGKERELVAAINSGTNTYYADSVKGRFTISRDNAMNTVYLQMNSLKPEDTAVYYCAADWNDWHYDYWGQGTQVTVSS”, the “polyreactivity (PSR sort gate)” value is on record as “low polyreactivity”.

For the sequence “QVQLAESGGGLVQAGGSLRLSCAASGSILFNMGWYRQAPGKERELVAAIRYGGGRTYYADSVKGRFTISRDNAKNTVYLQMNSLKPEDTAVYYCAAPYKRNAGFDYWGQGTQVTVSS”, the “polyreactivity (PSR sort gate)” value is reported as “low polyreactivity”.

In the case of “QVQLEDSGGGLLQAGGSLRLSCAASGRILYLYTMGWYRQAPGKERELVAAISRGGSTYYADSVKGRFTISRDNAKNTVYLQMNSLNPEDTAVYYCSADARGYQFNYWGQGTQVTVSS”, the “polyreactivity (PSR sort gate)” value is recorded as “high polyreactivity”. The same measure for “QVQLEDSGGGLVQAGGSLRLSCAASGFTFSYNAMGWYIQAPGKERELVAAISSRGTSTYYADSVKGRFTISRDNAKNTVYLQMNSLKPEDTAVYYCNTVPYFYLTFYPHYDYWGQGTQVTVSS”: “high polyreactivity”; for “QVQLEDSGGGLVQAGGSLRLSCAASGRIFYTYAMGWYRQAPGKERELVAAINRSGSSTYYADSVKGRFTISRDNAKNNVYLQMNSLKPEDTAVYYCNAQSYLYYGWVLTDVDYWGQGTQVTVSS”: “low polyreactivity”. As for “QVQLEDSGGGLVQAGGSLRLSCAASGRTFPYKAMGWYRQAPGKERELVAAITSSGGSTYYADSVKGRFTISRDNAKNTVYLQMNSLKPEDTAVYYCAKGYYSPNYYYWGQGTQVTVSS”, the entry is “high polyreactivity”. For the sequence “QVQLEDSGGGLVQAGGSLRLSCAASGRTLYLYAMGWYRQAPGKERELVAAIDWRGTSTYYADSVKGRFTISRDNAKNTVYLEMNSLKPEDTAVYYCNARFRSYLRWYQRDYWGQGTKVTVSS”, the “polyreactivity (PSR sort gate)” value is “low polyreactivity”.

On to “QVQLEDSGGGLVQAGGSLRLSCAASGSIFATNAMGWYRQGPGKERELVAAISRSGASTYYADSVKGRFTISRDNAKNTVYLQMNRLKPEDTAVYYCNKVLYRDAYHSYGFEYWGQGTQVTVSS”, for which the “polyreactivity (PSR sort gate)” value is “high polyreactivity”. On to “QVQLEDSGGGLVQAGGSLRLSCAASGSTFILNAMGWYRDAPGKERELVATISSSDTSTYYADSVKGRFTISRDNAKNTVYLQMNSLKPEDTAVYYCNADYYTTSYLQRVYHYGVEYDYWGQGTQVTVSS”, for which the “polyreactivity (PSR sort gate)” value is reported as “low polyreactivity”. The same measure for “QVQLEDSGGGLVQAGGTHSLSCAASGFTFARNTMGWYRQAPGKERELVAAISWRGGRTYYADSVTGRFTISRDNAKNTDYLQMNRLKPEDRAVYYCNGVILKLGDALYDYWGEGTQVTVSS”: “high polyreactivity”; for “QVQLEDSGGGLVQAGVSLRLSSDASGSTIAGYVMGWYRQAPGKERELVAAISRSGGSTYYADSVKGRFTISRDNEKNTVYLQMNSLKPEDTAVYYCASRNSPGFPGDYWGQGSQVTVSS”: “high polyreactivity”.

(Values after the nanobody polyreactivity screen of Harvey et al. (2022).)
